According to paper PMC4191399:
Positions count from the first letter of the chain named.

Columns and labels:
[1] = molecular target: T1, RIG-I Q784A/R791A Q784A;R791A (Homo sapiens) (UniProt O95786); test: fluorescence polarization; settings: internal 6-carboxyfluorescein in backbone between U12 and C13 (central tetraloop bases); 25 mM MOPS pH 7.4, 150 mM KCl, 2 mM DTT, 2 mM MgCl2, 0.01% Triton X-100, 1 nM RNA, room temperature, 1 h
T1 sequence: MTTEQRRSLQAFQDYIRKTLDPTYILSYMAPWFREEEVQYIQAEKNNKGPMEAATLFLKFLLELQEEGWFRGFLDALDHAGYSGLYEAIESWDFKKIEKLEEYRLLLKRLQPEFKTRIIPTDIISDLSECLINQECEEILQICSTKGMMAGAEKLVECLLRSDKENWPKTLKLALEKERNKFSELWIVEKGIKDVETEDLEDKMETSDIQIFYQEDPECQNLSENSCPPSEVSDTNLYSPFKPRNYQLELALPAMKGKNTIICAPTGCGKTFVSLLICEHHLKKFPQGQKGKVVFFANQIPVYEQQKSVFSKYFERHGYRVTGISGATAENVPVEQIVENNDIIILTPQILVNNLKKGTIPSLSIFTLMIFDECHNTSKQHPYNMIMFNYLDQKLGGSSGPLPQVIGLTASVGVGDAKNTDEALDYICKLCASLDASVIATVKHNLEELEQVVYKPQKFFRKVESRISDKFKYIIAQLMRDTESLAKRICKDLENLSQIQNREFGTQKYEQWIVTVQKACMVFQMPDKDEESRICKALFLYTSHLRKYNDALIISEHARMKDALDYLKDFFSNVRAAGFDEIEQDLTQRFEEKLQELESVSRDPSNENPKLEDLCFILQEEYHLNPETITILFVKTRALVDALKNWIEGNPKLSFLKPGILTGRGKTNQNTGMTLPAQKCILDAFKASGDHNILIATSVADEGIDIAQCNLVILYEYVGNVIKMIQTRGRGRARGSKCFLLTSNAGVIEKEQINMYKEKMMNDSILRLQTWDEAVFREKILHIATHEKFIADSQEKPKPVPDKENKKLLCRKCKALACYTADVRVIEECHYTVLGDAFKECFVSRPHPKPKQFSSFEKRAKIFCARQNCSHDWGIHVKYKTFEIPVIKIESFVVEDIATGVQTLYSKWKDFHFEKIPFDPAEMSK

RIG-I WT (Homo sapiens) = molecular target: T2, RIG-I WT (Homo sapiens) (UniProt O95786); test: fluorescence polarization; settings: internal 6-carboxyfluorescein in backbone between U12 and C13 (central tetraloop bases); 25 mM MOPS pH 7.4, 150 mM KCl, 2 mM DTT, 2 mM MgCl2, 0.01% Triton X-100, 1 nM RNA, room temperature, 1 h
T2 sequence: T1 sequence with A784Q, A791R

Question: GGACGUACGUUUCGACGUACGUCC [5'OH10L-F] was tested. Which Kd [1] did it give?
Answer: The Kd was 0.0914 µM.

Question: And the Kd (RIG-I WT (Homo sapiens))?
Answer: Its Kd is 0.025 µM.
